Results from patent US11560546B2, “Methods for neural conversion of human embryonic stem cells” (MEMORIAL SLOAN KETTERING CANCER CENTER, priority 2009, dated 2023).
Entries after “also recorded” stand apart in the source; their conditions may differ.

Columns and labels:
Type in all cases: cell-based, human
hESC = assay: Real-Time PCR of pluripotency and germ layer markers in treated hESC
Experimental: Cells and Culture Conditions (dual SMAD and floor plate). hESCs (WA-09; passages 35-45) were cultured on mouse embryonic fibroblasts plated at 12-15,000 cells/cm2 (MEFs, Global Stem). A medium of DMEM/F12, 20% knockout serum replacement (GIBCO), 0.1 mM b-mercaptoethanol, 6 ng/mL FGF-2 was changed daily. Cells were passaged using 6 U/mL of dispase in hESCs media, washed and re-plated at a dilution of 1:5 to 1:10. Neural Induction (Dual SMAD). hESC cultures were disaggregated using accutase for 20 minutes, washed using hESC media and pre-plated on gelatin for 1 hour at 37° C. in the presence of ROCK inhibitor to remove MEFs. The nonadherent hESC were washed and plated on matrigel at a density of 10,000-25,000 cells/cm^2 on matrigel (BD) coated dishes in MEF conditioned hESC media (CM) spiked with 10 ng/mL of FGF-2 and ROCK-inhibitor. […] The ROCK inhibitor was withdrawn, and hESC were allowed to expand in CM for 3 days or until they were nearly confluent. The initial differentiation media conditions included knock out serum replacement (KSR) media with […] TGF-beta inhibitor (SB431542, Tocris) and 500 ng/mL of Noggin (R&D). Upon day 5 of differentiation, the TGF-b inhibitor was withdrawn and increasing amounts of N2 media (25%, 50%, 75%) was added to the KSR media every two days while maintaining 500 ng/mL of Noggin. For MS5 induction, established methods previously reported were used^18. Quantitative Real-Time (Dual SMAD). Total RNA was extracted using an RNeasy kit (Qiagen). For each sample, 1 ug of total RNA was treated for DNA contamination and reverse transcribed using the Quantitect RT kit (Qiagen). Amplified material was detected using Quantitect SYBR green probes and PCR kit (Qiagen) on a Mastercycler RealPlex2 (Eppendorf). Results were normalized to a HPRT control and are from 4-6 technical replicates of 2-3 independent biological samples at each data point. Neuronal Patterning and Differentiation (Dual SMAD). Dopaminergic patterning was initiated using BDNF, ascorbic acid, sonic hedgehog, and FGF8 in N2 media as previously reported^18, and maturation was performed in the presence of BDNF, ascorbic acid, GDNF, TGFb-1, and cyclic-AMP. Motor neuron patterning was performed using BDNF, ascorbic acid, sonic hedgehog, and retinoic acid in N2 media as previously reported^16. Microscopy, Antibodies, and Flow Cytometry (Dual SMAD). Tissue was fixed using 4% paraformaldehyde for 20 minutes, washed with PBS, permeablized using 0.5% Triton X in PBS, and blocked using 1% BSA in PBS. Primary antibodies used for microscopy included PAX6 (Covance), Oct4 (Biovision), AP2 (Novus Biologicals), GBX2 (Sigma), HNK1 (Sigma), HOXB4 (Developmental Studies Hybridoma Bank (DSHB)), Nestin (R&D), NKX6.1 (DSHB), OTX2 (gift), p75 (Advanced Target Systems.), PAX7 (DSHB), PLZF (Calbiochem), TUJ1 (Covance), ZO1 (Zymed), BF1 (FOXG1, gift Esseng Lai), TH (Sigma), HB9 (DSHB), ISL1 (DSHB). CD105-PE (eBioscience) was used for excluding MS5 stromal cells for flow cytometery on a FACS can (BD). Floor Plate: Neural Induction.

hESCs [1] = assay: Floor plate induction in NSB protocol, FOXA2 immunostaining; conditions: added early along FP differentiation; BIO 100 nM
Experimental: (§1) For MS5 induction, established methods previously reported were used (Perrier et al., 2004). Feeder free neural induction was carried out as previously described (Chambers et al., 2009). Briefly, hESCs cultures were disaggregated using accutase for 20 minutes, washed using hESCs media and pre-plated on gelatin for 1 hour at 37° C. in the presence of ROCK inhibitor to remove MEFs. The nonadherent hESCs were washed and plated on matrigel at a density of 20,000 cells/cm2 on matrigel (BD) coated dishes in MEF conditioned hESCs media (CM) spiked with 10 ng/mL of FGF-2 and ROCK-inhibitor. The ROCK inhibitor was withdrawn, and hESCs were allowed to expand in CM for 3 days or until they were nearly confluent. The initial differentiation media conditions included knock out serum replacement (KSR) media with […] TGF-b inhibitor (SB431542, Tocris) and 500 ng/mL of Noggin (R&D). Upon day 5 of differentiation, increasing amounts of N2 media (25%, 50%, 75%) was added to the KSR media every two days while maintaining 500 ng/mL of Noggin and TGF-b inhibitor. For FP induction, Sonic C25II was added at 200 ng/ml.
Tissue was fixed using 4% paraformaldehyde and Picric acid for 15 minutes, washed with PBS, permeablized using 0.3% Triton X in PBS, and blocked using 10% Donkey Serum. Primary antibodies used for microscopy included PAX6 (Covance), TUJ1 (Covance), ZO1 (Zymed), BF1 (FOXG1, gift E.Lai), TH (Pelfreez), NKX6.1 (DSHB) and FOXA2 (SantaCruz).
Using this protocol, in combination with compositions and methods of the present inventions, the inventors aimed to optimize FP differentiation by adding Sonic C25II at different time points during neural induction and assaying for FOXA2 expression. Differentiation was initiated upon NSB exposure, and Sonic C25II was added at Day 1, Day 3, Day 5, or Day 7 (FIG. 2A).

[2] = test system: rosette-stage neural cells; assay: Floor plate induction in stromal-feeder (MS5) derived / rosette-stage neural cells; conditions: added to neural rosette stage cells
Experimental: as §1
hESC derived neural cells at the rosette stage were differentiated into both CNS and PNS progeny and patterned towards multiple cells fates along the A/P and D/V axis (Elkabetz et al., 2008). […] Specification of progenitor cells into FP tissue and cells during mouse development was thought to depend on SHH signaling within early neural lineages. The inventors tested whether rosette-stage neural cells were competent to undergo FP specification in response to SHH. High concentrations of SHH were needed to induce FP during mouse development (Roelink et al., 1994; Ericson et al., 1996). Recombinant N-terminal SHH has a limited activity range due to the lack of posttranslational modifications required for full SHH action. Recently, a modified version of recombinant SHH became available where SHH was tethered to two Isoleucines (Sonic C25II, R&D Systems), mimicking more closely the potency of mammalian SHH protein.
The majority of cells retained rosette cytoarchitecture and staining for the AN marker BF1 as described previously (FIG. 1A) (Elkabetz et al., 2008).
Based on the hypothesis that FP specification in the mouse occurs at early developmental stages, at the time of or prior to neural induction, the inventors repeated SHH induction studies at Day 9, the time of rosette specification, using classic stromal-feeder mediated neural induction protocols (Elkabetz et al., 2008). Under this paradigm the inventors noticed a drastic change in cell morphology restricted to the cells treated with SHH-C25II (FIG. 1B).

hESCs derived FP = assay: SHH enhancer (SBE1/SBE2) LacZ constructs in hESC derived FP
Source text: As mentioned above, studies had identified different enhancers that directed SHH expression to different A/P region along ventral axis (Jeong et al., 2008). […] In the absence of caudalizing factors (SHH C25II alone), LacZ expression was observed herein following transfection with the SBE2 but not the SBE1 enhancer supporting the hypothesis that hESC derived FP is anterior by default (FIG. 6C). In contrast SBE2 activity was abolished upon treatment with Wnt1 or FGF8 while SBE1 activity was induced under these conditions.

hESCs [3] = assay: qRT-PCR of FP, AN and regional markers during FP induction
Experimental: as §1
Total RNA was extracted using an RNeasy kit (Qiagen). For each sample, 1 ug of total RNA was treated for DNA contamination and reverse transcribed using the Superscript III (Invitrogen). Amplified material was detected using Taqman probes and PCR mix (ABI) on a Mastercycler RealPlex2 (Eppendorf). All results were normalized to a HPRT control and are from 3 technical replicates of 3 independent biological samples at each data point.
FOXA2 is a key marker of FP development. However, FOXA2 is also highly expressed in the endoderm. To further characterize the hESC derived putative FP tissue, the inventors performed qRT-PCR analyses for candidate markers at Day 11. […] The inventors further characterized the nature of FOXA2+ putative FP cells using a panel of neural precursor, glial, neuronal and non-neural markers (FIG. 7). […] To distinguish FOXA2 expression in hESC derived FP versus endoderm tissue, the inventors differentiated hESCs to endoderm (D'Amour et al., 2005).
To gain further insight into the factors critical for human FP specification, high resolution temporal gene expression profiles of candidate markers were performed at 6 time points during the 11 day protocol.
The inventors contemplated the use of SIX6 as a putative marker of anterior FP identity. Thus SIX6 status of the hESC derived FP was used to mark respecification in response to known caudalizing agents such as FGF8, Wnt-1, and Retinoic Acid. Each of these caudalizing factors was added in combination with SHH and the resulting tissue was assessed for expression of the FP markers FOXA2 and NETRIN-1, the AN marker BF1, and putative anterior FP marker SIX6.

[4] = caudalizing factor added in combination with SHH

Noggin
CDX2 expression (hESC): Suppression of CDX2 | SOX17 expression (endodermal lineage) (hESC): suppression of SOX17

O=C1Nc2cc(Br)ccc2/C1=C1/Nc2ccccc2/C1=N\O [BIO, reference compound]
FOXA2 expression (hESCs [1]): can increase FOXA2 expression | FP competency of neural rosette stage cells [2]: not sufficient to induced FP competency

NC(=O)c1ccc(-c2nc(-c3ccc4c(c3)OCO4)c(-c3ccccn3)[nH]2)cc1 [SB431542, 4-[4-(1,3-benzodioxol-5-yl)-5-(2-pyridinyl)-1H-imidazol-2-yl]-benzamide]
Brachyury expression (mesodermal lineage) (hESC): suppression of Brachyury | CDX2 expression (hESC): dramatic increase | Nanog expression (hESC; hESC in KSR): rapid loss of Nanog expression; also recorded: most dramatic downregulation

B1: FGF8: caudalizing factor (R&D 50 ng/ml) (protein, UniProt P55075 23-233, looked up)
Fibroblast growth factor 8: QEGPGRGPALGRELASLFRAGREPQGVSQQHVREQSLVTDQLSRRLIRTYQLYSRTSGKHVQVLANKRINAMAEDGDPFAKLIVETDTFGSRVRVRGAETGLYICMNKKGKLIAKSNGKGKDCVFTEIVLENNYTALQNAKYEGWYMAFTRKGRPRKGSKTRQHQREVHFMKRLPRGHHTTEQSLRFEFLNYPPFTRSLRGSQRTWAPEPR
SBE1 enhancer activity (LacZ) (hESCs derived FP): induced | SBE2 enhancer activity (LacZ) (hESCs derived FP): abolished | SIX6 expression (hESCs [3]; [4]): significant reduction in SIX6 expression

B2: Wnt-1: caudalizing factor (Peprotech 50 ng/ml) (protein, UniProt P04628 28-370, looked up)
Proto-oncogene Wnt-1: ANSSGRWWGIVNVASSTNLLTDSKSLQLVLEPSLQLLSRKQRRLIRQNPGILHSVSGGLQSAVRECKWQFRNRRWNCPTAPGPHLFGKIVNRGCRETAFIFAITSAGVTHSVARSCSEGSIESCTCDYRRRGPGGPDWHWGGCSDNIDFGRLFGREFVDSGEKGRDLRFLMNLHNNEAGRTTVFSEMRQECKCHGMSGSCTVRTCWMRLPTLRAVGDVLRDRFDGASRVLYGNRGSNRASRAELLRLEPEDPAHKPPSPHDLVYFEKSPNFCTYSGRLGTAGTAGRACNSSSPALDGCELLCCGRGHRTRTQRVTERCNCTFHWCCHVSCRNCTHTRVLHECL
SBE1 enhancer activity (LacZ) (hESCs derived FP): induced | SBE2 enhancer activity (LacZ) (hESCs derived FP): abolished | FP production based on FOXA2 and Netrin-1 expression (hESCs [3]; added in combination with SHH): significantly potentiated FP production | BF1 expression (hESCs [3]; [4]): dramatic reduction in BF1 expression | SIX6 expression (hESCs [3]; [4]): significant reduction in SIX6 expression | midbrain FP markers CORIN and NOV and DA progenitor markers LMX1B, EN1, NGN2 (hESCs [3]; qPCR): significant increase | FP competency of neural rosette stage cells [2]: not sufficient to induced FP competency

B3: Wnt3A: WNT protein added to neural rosette stage cells (protein, UniProt P56704 19-352, looked up)
Protein Wnt-3a: SYPIWWSLAVGPQYSSLGSQPILCASIPGLVPKQLRFCRNYVEIMPSVAEGIKIGIQECQHQFRGRRWNCTTVHDSLAIFGPVLDKATRESAFVHAIASAGVAFAVTRSCAEGTAAICGCSSRHQGSPGKGWKWGGCSEDIEFGGMVSREFADARENRPDARSAMNRHNNEAGRQAIASHMHLKCKCHGLSGSCEVKTCWWSQPDFRAIGDFLKDKYDSASEMVVEKHRESRGWVETLRPRYTYFKVPTERDLVYYEASPNFCEPNPETGSFGTRDRTCNVSSHGIDGCDLLCCGRGHNARAERRREKCRCVFHWCCYVSCQECTRVYDVHTCK
FP competency of neural rosette stage cells [2]: not sufficient to induced FP competency
